# Patent US20080279841A1, “Novel Therapeutic Molecular Variants And Uses Thereof” (MEDVET SCIENCE PTY LTD., priority 2000, published 2008)
# Changes are numbered by the printed parent chain. Numbers in names are those of the source. Entries after “also recorded” stand apart in the source; their conditions may differ. Where two headings read alike, the source gives them in different places.
# B1: G82DSK: human sphingosine kinase mutant, substitution of the glycine at position 82 to aspartic acid (protein)
# chain: MDPAGGPRGVLPRPCRVLVLLNPRGGKGKALQLFRSHVQPLLAEAEISFTLMLTERRNHARELVRSEELGRWDALVVMSGDDLMHEVVNGLMERPDWETAIQKPLCSLPAGSGNALAASLNHYAGYEQVTNEDLLTNCTLLLCRRLLSPMNLLSLHTASGLRLFSVLSLAWGFIADVDLESEKYRRLGEMRFTLGTFLRLAALRTYRGRLAYLPVGRVGSKTPASPVVVQQGPVDAHLVPLEEPVPSHWTVVPDEDFVLVLALLHSHLGSEMFAAPMGRCAAGVMHLFYVRAGVSRAMLLRLFLAMEKGRHMEYECPYLVYVPVVAFRLEPKDGKGVFAVDGELMVSEAVQGQVHPNYFWMVSGCVEPPPSWKPQQMPPPEEPL
# B2: hSK^WT: wild-type human sphingosine kinase (SK-1), recombinant, FLAG tagged, expressed in HEK293T cells (protein, UniProt Q9NYA1 1-384, looked up)
# Sphingosine kinase 1: B1 chain with D82G
# modifications: FLAG tag
# notes: wild-type human sphingosine kinase (SK-1), recombinant, FLAG tagged, expressed in HEK293T cells
# B3: hSK^G82A: human sphingosine kinase mutant, substitution of the glycine at position 82 to alanine (protein, UniProt Q9NYA1 1-384, looked up, variant G82A)
# Sphingosine kinase 1: B1 chain with D82A
# Tests used:
# [1] = molecular target: wild-type sphingosine kinase (Homo sapiens, UniProt Q9NYA1); conditions: chemical inhibitor hitherto used widely; cited from earlier work
# [2] = Sphingosine kinase activity of lysates of HEK293/HEK293T cells transfected with hSK or mutant hSK; assay type: biochemical, human; conditions: for sphingosine kinase (catalytic) activity of the variant itself: transfected HEK293 cells (FIG. 2); for Vmax: standardised for the expression levels of the two recombinant proteins
# Experimental: (§1) Cell Culture and Transfection—Human embryonic kidney cells (HEK293T, ATCC CRL-1573) cells were cultured on Dulbecco's modified Eagle's medium (DMEM; CSL Biosciences, Parkville, Austrlia) containing 10% fetal calf serum, 2 mM glutamine, 0.2% (w/v) sodium bicarbonate, penicillin (1.2 mg/ml), and gentamycin (1.6 mg/ml). Transfections were performed using the calcium phosphate precipitation method (Graham & van der Eb, 1973). Cells were harvested and lysed by sonication (2 watts for 30 s at 4° C.) in lysis buffer containing 50 mM Tris/HCl (pH 7.4), 10% glycerol, 0.05% Triton X-100, 150 mM NaCl, 1 mM dithiothreitol, 2 mM Na3VO4 10 mM NaF, and 1 mM EDTA. Protein concentrations in cell homogenates were determined with either the Coomassie Brillant Blue (Sigma) or Bichinchoninic acid (Pierce) reagents using BSA as standard.
# as §1, with “Australia)” for “Austrlia)”, “Na3VO4,” for “Na3VO4”, “with” for “with either”, “Brilliant” for “Brillant”, “reagent” for “or Bichinchoninic acid (Pierce) reagents”
# (§2) Kinetic parameters were calculated using a non-linear regression program.
# [3] = test system: endogenous sphingosine kinase; assay: Activation of endogenous sphingosine kinase activity by TNFα, IL-1 and PMA in HEK293 cells expressing the variant; assay type: cell-based, human; conditions: for effect on increases in sphingosine kinase activity after activating agents: 100 units/ml IL-1 10 min, 100 ng/ml PMA 30 min (FIGS. 3 & 4)
# Experimental: HEK293 cells transfected with either pcDNA3-G82DSK or empty pcDNA3 vector were treated with 1 ng/ml TNFα and 100 units/ml IL-1 for 10 min and 100 ng/ml PMA for 30 min.
# FIG. 4 is a graphical representation of time course of sphingosine kinase activation by TNFα in HEK293 cells expressing G82D SK. HEK293 cells transfected with either pcDNA3-G82DSK or empty pcDNA3 vector were treated with 1 ng/ml TNFα. Cells were harvested at various times over 45 min. of TNFα treatment with the cell lysates assayed for sphingosine kinase activity.
# as §1
# [4] = test system: overexpressed wild-type sphingosine kinase; assay: Activation of overexpressed wild-type sphingosine kinase by TNFα in cotransfected HEK293 cells; assay type: cell-based, human; conditions: for effect on activation of overexpressed wild-type sphingosine kinase: HEK293 cells cotransfected with equal proportions, 1 ng/ml TNFα 10 min (FIG. 5)
# Experimental: HEK293 cells, either transfected with pcDNA3-SK, or cotransfected with equval proportions of pcDNA3-SK and pcDNA3-G82DSK were treated with 1 ng/ml TNFα for 10 min. Cells were then harvested and the SK activity in the cell lysates determined.
# as §1
# [5] = test system: sphingosine kinase stimulated by the oncogene Ras; assay: Activation of SK by the oncogene Ras in 3T3 fibroblasts; assay type: cell-based; conditions: 3T3 fibroblasts (FIG. 6)
# Experimental: (§3) A. NIH 3T3 cells were transfected with V12-Ras, v-Src or V12-Ras plus G82D-SK, SphK activity was measured 48 h after transfection. B. Focus formation assays were performed in V12-Ras, v-Src, SphK, or V12-Ras plus G82D-SK transfected NIH 3T3 cells in the absence or presence of DMS (2.5 μM) over two weeks.
# (§4) For focus formation assay, low passage NIH 3T3 cells were transfected with the V12 mutant H-ras, v-SRC (gifts from Dr. Julian Downward^2), SphK, G82D mutant SphK expression vectors or empty vector using Lipofectamine Plus as described above. Two days later, the transfected cells were split to 6-well plates. After reaching confluence, they were kept for two weeks in DMEM containing 5% calf serum. The foci were visualized and scored after staining with 0.5% crystal violet. For soft agar assay, suspensions of 1×10^4 cells from the stable transfected pools in a growth medium containing 0.33% agar were overlaid onto 0.6% agar gel in the absence or presence of DMS at various concentrations. After 14-days incubation colonies were stained with 0.1 mg/ml MTT and those greater than 0.1 mm in diameter were scored as positive.
# protein kinase C = assay: Protein kinase C activity in situ in HEK293 cells (TNFα or PMA); assay type: cell-based, human; conditions: TNFα or PMA (FIG. 7)
# Experimental: (§5) Neutral sphingomyelinase activity was determined using [choline-methyl-^14C]sphingomyelin as substrate, essentially as previously described (Wiegmann et al., 1994). Briefly, whole cell lysates, prepared as described above, were added to an equal volume of 100 mM Tris/HCl buffer (pH 7.4) containing 0.2% Triton X-100, 10 mM MgCl2 and [choline-methyl-^14C]sphingomyelin (50,000 cpm/assay) and incubated at 37° C. for 60 min. Radioactive phosphorylcholine produced was then extracted with chloroform/methanol (2:1, v/v) and quantified in the aqueous phase by scientillation counting. The measurement of PKC activity in situ was performed as described previously (Xia et al., 1996). Briefly, cells were seeded in 24-well plates and maintained in culture medium until 70-80% confluent. After the indicated treatments, the cells were washed with DMEM and placed in 60 μl of buffered salt solution (137 mM NaCl, 5.4 mM KCl, 0.3 mM Na2HPO4, 0.4 mM KH2PO4, 5.5 mM glucose, and 20 mM HEPES) supplemented with 50 μg/ml digitonin, 10 mM MgCl2, 25 mM β-glycerophosphate, and 10 μM [γ^32P]ATP (5000 cpm/pmol). A PKC-specific peptide substrate ([sequence]) was then added (to 2001) in the presence of 5 mM EGTA and 2.5 mM CaCl2. […] The PKC-dependent phosphorylated peptide substrate bound to the filter was quantified by scintillation counting.
# ERK = ERK activation by TNFα in HEK293 cells (Western blot); assay type: cell-based, human; conditions: TNFα (FIG. 9)
# Experimental: Western Blotting—SDS-PAGE was performed on cell lysates according to the method of Laemmli using 12% acrylamide gels. Proteins were blotted to nitrocellulose and the membranes blocked overnight at 4° C. in PBS containing 5% skim milk and 0.1% Triston X-100. Sphingosine kinase expression levels were analysed with the M2 anti-FLAG antibody (Sigma). ERK activation in response to agonists was followed in cells serum-starved for 4 h using anti-ERK1/2 (Zymed, San Francisco, Calif.) and anti-phospho-ERK1/2 (Promega, Madison, Wis.) antibodies. Immunocomplexes were detected after conjugation to either HRP anti-mouse (Pierce) or anti-rabbit (Selinus/AMRAD, Melbourne, Australia) IgG using an enhanced chemiluminescence kit (Amersham).
# NIH 3T3 cells = assay: Focus formation (transformation) assay in V12-Ras transfected NIH 3T3 cells; assay type: cell-based; conditions: V12-Ras plus G82D-SK transfected NIH 3T3 cells, two weeks (FIG. 11)
# Experimental: as §3, §4
# sphingomyelinase = conditions: HEK293 cells, TNF (FIG. 8)
# Experimental: as §5
# [6] = Kinetic analysis of hSK with ATP; assay type: biochemical, human
# Experimental: Kinetic analyses were performed with ATP in the concentration range of 0-2 mM and 0-40 mM for hSK^WT and hSK^G82A, respectively. In both cases sphingosine was present at 100 μM.
# as §2
# [7] = Kinetic analysis of hSK with sphingosine; assay type: biochemical, human; conditions: for Km: sphingosine 0-2 mM, ATP 1 mM (hSK^WT), 40 mM (hSK^G82A), non-linear regression
# Experimental: Kinetic analyses were performed with sphingosine in the concentration range of 0-2 mM for both hSK^WT and hSK^G82A. ATP was present at 1 mM and 40 mM for hSK^WT and hSK^G82A, respectively.
# as §2
# wild-type sphingosine kinase, sequence (Q9NYA1 whole entry): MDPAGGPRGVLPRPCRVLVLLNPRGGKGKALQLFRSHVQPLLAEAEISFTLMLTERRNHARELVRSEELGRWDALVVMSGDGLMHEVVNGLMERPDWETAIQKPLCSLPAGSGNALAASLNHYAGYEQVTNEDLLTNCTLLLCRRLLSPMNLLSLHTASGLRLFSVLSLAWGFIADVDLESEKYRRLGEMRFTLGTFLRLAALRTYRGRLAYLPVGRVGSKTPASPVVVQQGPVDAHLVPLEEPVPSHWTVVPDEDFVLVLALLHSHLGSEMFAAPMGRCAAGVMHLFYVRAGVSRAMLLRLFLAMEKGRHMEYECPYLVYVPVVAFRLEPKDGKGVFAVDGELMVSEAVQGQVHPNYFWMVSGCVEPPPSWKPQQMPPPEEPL
molecule,measurement,setting,value
"CCCCCCCCCCCCC/C=C/[C@@H](O)[C@H](CO)N(C)C [DMS, N′N-dimethylsphingosine]",effect on wild-type sphingosine kinase function,[1],totally eliminates
B1,sphingosine kinase (catalytic) activity of the variant itself,[2],no sphingosine kinase activity
same,sphingosine kinase (catalytic) activity of the variant itself,[2]; listed as G82D,catalytically inactive
same,effect on increases in sphingosine kinase activity after activating agents,[3]; 1 ng/ml TNFα,totally suppresses; also recorded: only eliminates activation
same,effect on increases in sphingosine kinase activity after activating agents,"[3]; 1 ng/ml TNFα, listed as G82D SK",blocks activation
same,effect on TNF mediated sphingosine kinase activation over time,"[3]; 1 ng/ml TNFα, time course over 45 min (FIG. 4)",inhibits TNF mediated activation at all time point
same,effect on endogenous baseline sphingosine kinase activity,[3]; no stimulus (FIG. 2),does not suppress
same,effect on activation of overexpressed wild-type sphingosine kinase,[4],activation is decreased
same,effect on activation of overexpressed wild-type sphingosine kinase,[4]; listed as G82D SK,decreases activation
same,effect on overexpressed baseline sphingosine kinase levels,[4]; HEK293 cells overexpressing sphingosine kinase (FIG. 5),not altered
same,effect on sphingosine kinase stimulated by the oncogene Ras,[5],inhibits
same,effect on sphingosine kinase stimulated by the oncogene Ras,[5]; listed as G82D SK,inhibiting activation
same,effect on activation of protein kinase C,protein kinase C,does not depress
same,effect on activation of protein kinase C,protein kinase C; listed as G82D SK,does not effect activation
same,effect on activation of erk by TNF,ERK,inhibits
same,effect on activation of erk by TNF,ERK; listed as G82D SK,prevents ERK activation
same,effect on Ras transformation (focus formation),NIH 3T3 cells,inhibits Ras transformation
same,effect on activation of sphingomyelinase,sphingomyelinase,does not depress
same,effect on activation of sphingomyelinase,sphingomyelinase; listed as G82D SK,does not inhibit activation
B2,Vmax,[2],100 percentage of the maximum velocity calculated for SK^WT
same,Km,"[6]; sphingosine 100 μM, ATP 0-2 mM (hSK^WT), 0-40 mM (hSK^G82A), non-linear regression",115 µM
same,Km,[7],12.1 µM
B3,Vmax,[2],32 percentage of the maximum velocity calculated for SK^WT
same,catalytic activity relative to wildtype hSK,[2]; transfected HEK293T cell lysates (FIG. 12),~5%
same,affinity for ATP compared with wildtype hSK,[6]; FIG. 13,considerably lower affinity for ATP
same,affinity for sphingosine compared with wildtype hSK,[7]; FIG. 14,remains unaffected
same,Km,[7],15.5 µM
